# Results: patent US11529390B2, “PCSK9 inhibitory polypolypeptides and methods of use” (INSTITUT DE CARDIOLOGIE DE MONTREAL, priority 2015, dated 2022)
# Like-named read-outs stand apart in the source and are kept apart here.
# B1: SEQ ID. NO. 46: secretable HA-tagged GRP94 signal polypeptide, client-binding domain and C-terminal domain lacking KDEL (CBD-CT) (protein)
# chain: MRALWVLGLCCVLLTFGSVRAYGWSGNMERIMKAQAYQTGKDISTNYYASQKKTFEINPRHPLIRDMLRRIKEDEDDKTVLDLAVVLFETATLRSGYLLPDTKAYGDRIERMLRLSLNIDPDAKVEEEPEEEPEETAEDTTEDTEQDEDEEMDVGTDEEEETAKESTAEYPYDVPDYA
# B2: SEQ ID. NO. 7: polypeptide of the invention; in b217 apparently the truncated CBD-CT form of GRP94 (protein)
# chain: MRALWVLGLCCVLLTFGSVRAYGWSGNMERIMKAQAYQTGKDISTNYYASQKKTFEINPRHPLIRDMLRRIKEDEDDKTVLDLAVVLFETATLRSGYLLPDTKAYGDRIERMLRLSLNIDPDAKVEEEPEEEPEETAEDTTEDTEQDEDEEMDVGTDEEEETAKESTAE
# B3: SEQ ID. NO. 64: alanine-scanning mutant of GRP94-ΔKDEL, CBD region YAASAAAAAIMKAQAYQTGKDISTNYY (SEQ ID. NO. 78) (protein, listed as Homo Sapiens)
# chain: MRALWVLGLCCVLLTFGSVRADDEVDVDGTVEEDLGKSREGSRTDDEVVQREEEAIQLDGLNASQIRELREKSEKFAFQAEVNRMMKLIINSLYKNKEIFLRELISNASDALDKIRLISLTDENALSGNEELTVKIKCDKEKNLLHVTDTGVGMTREELVKNLGTIAKSGTSEFLNKMTEAQEDGQSTSELIGQFGVGFYSAFLVADKVIVTSKHNNDTQHIWESDSNEFSVIADPRGNTLGRGTTITLVLKEEASDYLELDTIKNLVKKYSQFINFPIYVWSSKTETVEEPMEEEEAAKEEKEESDDEAAVEEEEEEKKPKTKKVEKTVWDWELMNDIKPIWQRPSKEVEEDEYKAFYKSFSKESDDPMAYIHFTAEGEVTFKSILFVPTSAPRGLFDEYGSKKSDYIKLYVRRVFITDDFHDMMPKYLNFVKGVVDSDDLPLNVSRETLQQHKLLKVIRKKLVRKTLDMIKKIADDKYNDTFWKEFGTNIKLGVIEDHSNRTRLAKLLRFQSSHHPTDITSLDQYVERMKEKQDKIYFMAGSSRKEAESSPFVERLLKKGYEVIYLTEPVDEYCIQALPEFDGKRFQNVAKEGVKFDESEKTKESREAVEKEFEPLLNWMKDKALKDKIEKAVVSQRLTESPCALVASQYAASAAAAAIMKAQAYQTGKDISTNYYASQKKTFEINPRHPLIRDMLRRIKEDEDDKTVLDLAVVLFETATLRSGYLLPDTKAYGDRIERMLRLSLNIDPDAKVEEEPEEEPEETAEDTTEDTEQDEDEEMDVGTDEEEETAKESTAEYPYDVPDYA
# B4: SEQ ID. NO. 65: alanine-scanning mutant of GRP94-ΔKDEL, CBD region YGWSGNMERIMKAQAYATGKAISTNAA (SEQ ID. NO. 79) (protein, listed as Homo Sapiens)
# chain: MRALWVLGLCCVLLTFGSVRADDEVDVDGTVEEDLGKSREGSRTDDEVVQREEEAIQLDGLNASQIRELREKSEKFAFQAEVNRMMKLIINSLYKNKEIFLRELISNASDALDKIRLISLTDENALSGNEELTVKIKCDKEKNLLHVTDTGVGMTREELVKNLGTIAKSGTSEFLNKMTEAQEDGQSTSELIGQFGVGFYSAFLVADKVIVTSKHNNDTQHIWESDSNEFSVIADPRGNTLGRGTTITLVLKEEASDYLELDTIKNLVKKYSQFINFPIYVWSSKTETVEEPMEEEEAAKEEKEESDDEAAVEEEEEEKKPKTKKVEKTVWDWELMNDIKPIWQRPSKEVEEDEYKAFYKSFSKESDDPMAYIHFTAEGEVTFKSILFVPTSAPRGLFDEYGSKKSDYIKLYVRRVFITDDFHDMMPKYLNFVKGVVDSDDLPLNVSRETLQQHKLLKVIRKKLVRKTLDMIKKIADDKYNDTFWKEFGTNIKLGVIEDHSNRTRLAKLLRFQSSHHPTDITSLDQYVERMKEKQDKIYFMAGSSRKEAESSPFVERLLKKGYEVIYLTEPVDEYCIQALPEFDGKRFQNVAKEGVKFDESEKTKESREAVEKEFEPLLNWMKDKALKDKIEKAVVSQRLTESPCALVASQYGWSGNMERIMKAQAYATGKAISTNAAASQKKTFEINPRHPLIRDMLRRIKEDEDDKTVLDLAVVLFETATLRSGYLLPDTKAYGDRIERMLRLSLNIDPDAKVEEEPEEEPEETAEDTTEDTEQDEDEEMDVGTDEEEETAKESTAEYPYDVPDYA
# Experiments:
# [1] = system: LDLR degradation induced by overexpression of PCSK9; experiment: LDLR degradation after co-expression with PCSK9-V5 (intracellular pathway), immunoblot; format: cell-based, human
# Procedure: FIG. 7: SEQ ID NO. 6 prevents PCSK9-induced LDLR degradation. (a) Left; Coomassie staining of purified recombinant SEQ ID NO. 6 and PCSK9 separated by SDS-PAGE is shown. Right; HepG2 cells were incubated in DMEM without or with 0, 25, 100 or 250 nM SEQ ID NO. 6 alone or in presence of recombinant PCSK9. (b) HepG2 cells were transfected without (−) or with PCSK9-V5 in absence (−) or presence SEQ ID NO. 66 or SEQ ID NO. 46. Total LDLR, PCSK9, SEQ ID NO. 66, SEQ ID NO. 46 and β-actin protein levels were analyzed by immunoblotting in cell lysates and conditioned media as indicated. Data are representative of at least three independent experiments.
# We next tested whether SEQ ID. NO. 6 could alter the capacity of PCSK9 to induce LDLR degradation. HepG2 cells were incubated overnight with an increasing amount of recombinant SEQ ID. NO. 6 in absence or presence of exogenous PCSK9 (FIG. 7a). […] NO. […] Although that SEQ ID. NO. […] NO. […] (Poirier et al., 2009) As PCSK9 was also shown to induce LDLR degradation via an intracellular pathway, (Poirier et al., 2009) we evaluated to ability of SEQ ID. NO. 66 or SEQ ID. NO. 46 to neutralize PCSK9 in HepG2 cells following co-expression (FIG. 7b). Similar to the extracellular pathway (FIGS. 5b and 7a), both SEQ ID. NO. 66 and SEQ ID. NO. […] NO. 66 and specifically SEQ ID. NO. […]
# PCSK9-V5 = target: T1, PCSK9-V5 (Homo sapiens, UniProt Q8NBP7); experiment: Co-immunoprecipitation of GRP94 constructs with PCSK9-V5 in transfected HEK293 cells; format: binding
# T1 construct: Full-length human V5-tagged PCSK9 and LDLR were subcloned into pIRES2-EGFP; expressed in transfected cells; host or cells: HEK293
# T1 sequence (Q8NBP7 153-692): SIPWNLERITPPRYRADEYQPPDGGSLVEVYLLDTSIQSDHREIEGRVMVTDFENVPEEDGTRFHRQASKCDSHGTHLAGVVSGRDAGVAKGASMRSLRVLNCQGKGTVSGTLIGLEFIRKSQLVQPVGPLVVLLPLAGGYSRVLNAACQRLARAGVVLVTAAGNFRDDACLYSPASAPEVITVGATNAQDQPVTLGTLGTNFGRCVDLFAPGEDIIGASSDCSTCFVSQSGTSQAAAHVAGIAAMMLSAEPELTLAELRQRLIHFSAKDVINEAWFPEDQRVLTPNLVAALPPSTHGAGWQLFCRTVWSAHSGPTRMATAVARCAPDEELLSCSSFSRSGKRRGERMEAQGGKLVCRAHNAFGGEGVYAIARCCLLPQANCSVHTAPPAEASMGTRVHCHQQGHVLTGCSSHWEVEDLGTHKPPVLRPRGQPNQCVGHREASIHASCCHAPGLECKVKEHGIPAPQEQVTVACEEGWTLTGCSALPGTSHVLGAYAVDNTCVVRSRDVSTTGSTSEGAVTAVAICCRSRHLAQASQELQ
# Procedure: FIG. 2: Mapping of the PCSK9-GRP94 interacting domain. (a-b) HEK293 cells were transfected without (−) or with (+) PCSK9-V5 or SEQ ID NO. 66, 64 or 65. A PCSK9 V5 epitope-tag fusion protein (PCSK9-V5) was immune-precipitated from cell lysates using mAb-V5 antibody (IP: V5) and immune-blotted as indicated. Total GRP94 (SEQ. ID. NO. 3) and PCSK9 (SEQ. ID. NO. 1) protein levels were analyzed by immune-blotting in cell lysates (input) and conditioned media. (c) Left panel; HEK293 cells were transfected without (−) or with (+) PCSK9-V5, SEQ. ID. NO. 66 or 46. PCSK9-V5 was immune-precipitated for cell lysates (IP: V5) and immune-blotted (IB) as indicated. Total GRP94 and PCSK9 protein levels were also analyzed by immune-blotting and herein used as a control (input). Right panel; GRP94 homodimer (gray and yellow) crystal structure was determined from PDB file #2O1V using MacPymol software. […] 6 in which critical residues for PCSK9 binding determined in (b) are indicated in blue for SEQ. ID. NO. 64 and red for SEQ. ID. NO. 65. Data are representative of at least three independent experiments.
# For identification of novel PCSK9 interactors, HepG2 or Huh-7 cells (55 cm2) were washed three times in phosphate-buffered saline (PBS) and incubated with 1 mM dithiobis[succinimidylpropionate] (DSP; Cat. #22585, Thermo Scientific), a thiol-cleavable cross-linking reagent, for 30 min at room temperature and subsequently switch for 15 min into a stop solution (15 mM Tris, pH 7.5). Cells were then lysed in complete radio-immune precipitation assay (RIPA) buffer (50 mM Tris/HCl, pH 8.0, 1% (v/v) Nonidet P40, 0.5% sodium deoxycholate, 150 mM NaCl and 0.1% (v/v) sodium dodecyl sulfate (SDS)) supplemented with a complete protease inhibitor mixture (Cat. #11 697 498 001, Roche Applied Science), passed 25 times through a 22-gauge needle and centrifuged at 11,000 g for 15 min at 4° C. Supernatants were incubated and rotated overnight with pre-immune serum, rabbit anti-hPCSK9 (amino acids 31-454) (1:250; Dr. Nabil Seidah, Clinical Research Institute of Montreal) or mouse anti-V5-tag (1:500; Cat. #R96025, Life Technologies) together with 50 μl protein A/G PLUS-agarose (Cat. #sc-2003, Santa Cruz). Following overnight incubation, beads were washed six times in RIPA buffer and resuspended in 75 μl Laemmli sample buffer. Co-immunoprecipitated (Co-IP) proteins were separated by 8% SDS-polyacrylamide gel electrophoresis and visualized using the Pierce silver stain kit (Cat. #24600, Thermo Scientific) according the manufacturer's instructions. All other Co-IP experiments were performed as described without the cross-linking step and in SDS-deprived RIPA buffer. HA-tagged proteins and GRP94 were immunoprecipitated with mouse anti-HA-tag (1:500; Cat. #H3663, Sigma-Aldrich) or rat anti-Grp94 (9G10, 1:1000; Cat. #ADI-SPA-850, Enzo Life Sciences).
# We next decided to map GRP94 domain(s) important for PCSK9 protein-protein interaction. The overall domain structure of GRP94 includes a signal polypeptide (amino acids; aa1-21) followed by a N-terminal enzymatic ATP-binding domain (aa22-651), client-binding domain (CBD; aa652-678), C-terminal dimerization domain (aa679-799) and a KDEL polypeptide sequence (aa800-803) allowing retention of GRP94 in the endoplasmic reticulum. (Dollins et al., 2007; Maki et al., 1990; Wu et al., 2012) Thus, we first generated cDNA constructs encoding secretable HA-tagged forms of human GRP94 lacking its C-terminal KDEL polypeptide (SEQ ID. NO. 66; FIG. 2). HEK293 cells were transfected without or with SEQ ID. NO. 66 in absence or presence of PCSK9-V5 (FIG. 2a). […] NO. 66 is well expressed (Input; IB: HA) and secreted into media and that SEQ ID. NO. […] It was reported that a 27 aa C-terminal hydrophobic loop structure within GRP94 client-binding domain (CBD, amino acids aa652-678; ^652[…], SEQ ID. NO. 4) was important for folding and interaction with Toll-like receptors and integrins. (Wu et al., 2012) Deletion or alanine-scan mutations in SEQ ID. […]
Molecule,Block of LDLR degradation induced by overexpression of PCSK9 [1],Interaction (binding) with PCSK9 by co-immunoprecipitation (PCSK9-V5),Interaction (binding) with PCSK9 by co-immunoprecipitation (PCSK9-V5; listed as AA1),Interaction (binding) with PCSK9 by co-immunoprecipitation (PCSK9-V5; listed as AA2)
B1,significantly block,–,–,–
B2,–,significantly enhanced,–,–
B3,–,abrogate binding to PCSK9,abolished PCSK9 binding,–
B4,–,abrogate binding to PCSK9,–,abolished PCSK9 binding
